From US20140094415A1

Biological target: HIS-PDZ1-2 protein (PSD-95 PDZ1-2 tandem) (human) (UniProt P78352)
Assay: fluorescence polarization, heterologous competition against AB143 probe

Question: How did the Ki turn out when Tat-NR2B9c (peptide) was run?
Answer: 4.6 µM
